Numbered stars: 1 amine (or outer) side, 2 acyl side, 3 side chain; on linkers, the order of the positions; unused ones are H or OH. Square brackets hold non-standard residues; d marks the D form. Side chains are listed from the residue outwards. Ends that are not written are not given here. * marks the point of attachment. C20 diacid = O=C(O)CCCCCCCCCCCCCCCCCCC(=O)*; γGlu = O=C(O)[C@H](CCC(=O)[*:2])N[*:1]; Desaminohistidyl = O=C(CCc1c[nH]cn1)*; εLys = N[C@@H](CCCCN[*:1])C(=O)[*:2]; Trx = NC[C@H]1CC[C@H](C(=O)O)CC1; PEG4 = NCCOCCOCCOCCOCCC(=O)O; AEEA = NCCOCCOCC(=O)O; Aib = CC(C)(N)C(=O)O
Assays:
[1] = biological target: T1, human GLP-1 receptor (human, UniProt P43220 24-463); test: competitive binding (SPA): displacement of 125I-GLP-1(7-36)NH2 from BHK cell membranes with human GLP-1 receptor; high HSA (2.0% final)
T1 construct: whole, on cells
Description: (§1) For the receptor binding assay in the presence of low HSA (0.005%) 50 μl of the assay buffer was added to each well of an assay plate. […] For the receptor binding assay in the presence of high HSA (2%) 50 μl of the 8% albumin stock was added to each well of an assay plate. […] Cell membrane aliquots were thawed and diluted to their working concentration. Fifty μl were added to each well in the assay plate. […] WGA SPA beads were suspended in assay buffer at 20 mg/ml. The suspension was diluted to 10 mg/ml in assay buffer just prior to addition to the assay plate. Fifty μl were added to each well in the assay plate. […] A 25 μl aliquot was reserved for measuring total counts/well. […] The assay plate was incubated for 2 h at 30° C. […] The assay plate was centrifuged for 10 min. […] The assay plate was read in a Packard TopCount NXT instrument.

[2] = biological target: T1, human GLP-1 receptor; test: competitive binding (SPA): displacement of 125I-GLP-1(7-36)NH2 from BHK cell membranes with human GLP-1 receptor; low HSA (max. 0.001% final)
Description: as §1

[3] = biological target: T1, human GLP-1 receptor; test: cell-based or functional assay

IC50 [1] | IC50 [2] | EC50 (pM), in vitro potency, CRE luciferase reporter gene assay in BHK cells expressing the human GLP-1 receptor [3] | Binder
123 nM | 1.3 nM | 27 pM | H[Aib]EGTFTSDVSSYLEEQAAREFIAWLVRGRGK([PEG4-γGlu-Trx-C20 diacid])GGSK([PEG4-γGlu-Trx-C20 diacid]) (Double-acylated, C-terminally extended GLP-1 analogue made by SPPS; also called 10)
38 nM | 0.22 nM | 10 pM | H[Aib]EGTFTSDVSSYLEEQAAREFIAWLVRGRGK([AEEA-AEEA-AEEA-AEEA-εLys-εLys-C20 diacid])GGSK([AEEA-AEEA-AEEA-AEEA-εLys-εLys-C20 diacid]) (Double-acylated, C-terminally extended GLP-1 analogue made by SPPS; also called 25)
194 nM | 0.82 nM | 10 pM | HXEGTFTSDVSSYLEEQAAREFIAWLVRGRGKGGSK (Aib at position 8; N-epsilon of Lys38 and of Lys42 each acylated with C20 diacid (19-carboxynonadecanoyl)-gGlu-TotaGlyc (GLP-1(7-37) numbering = sequence-listing position + 6), Double-acylated, C-terminally extended GLP-1 analogue made by SPPS; The printed name has 'AAib8' (typographic slip for Aib8); also called 22)
201 nM | 1.4 nM | 22 pM | HXEGTFTSDVSSYLEEQAAREFIAWLVRGRGKGGSK (Aib at position 8; N-epsilon of Lys38 and of Lys42 each acylated with C20 diacid (19-carboxynonadecanoyl)-Trx-gGlu-DooaSuc (GLP-1(7-37) numbering = sequence-listing position + 6), Double-acylated, C-terminally extended GLP-1 analogue made by SPPS; also called 23)
270 nM | 4.1 nM | 8.4 pM | [Desaminohistidyl][Aib]EGTFTSDVSSYLEEQAAREFIAWLVRGRGK([AEEA-AEEA-AEEA-AEEA-γGlu-C20 diacid])GGSK([AEEA-AEEA-AEEA-AEEA-γGlu-C20 diacid]) (Double-acylated, C-terminally extended GLP-1 analogue made by SPPS; also called 20)
30 nM | 0.08 nM | 4.4 pM | H[Aib]EGTFTSDVSSYLEEQAAREFIAWLVRGRGK([AEEA-AEEA-AEEA-AEEA-AEEA-εLys-εLys-C20 diacid])GGSK([AEEA-AEEA-AEEA-AEEA-AEEA-εLys-εLys-C20 diacid]) (Double-acylated, C-terminally extended GLP-1 analogue made by SPPS; also called 27)
99 nM | 1.8 nM | 12 pM | H[Aib]EGTFTSDVSSYLEEQAAREFIAWLVRGRGK([AEEA-AEEA-AEEA-AEEA-γGlu-Trx-C20 diacid])GGSK([AEEA-AEEA-AEEA-AEEA-γGlu-Trx-C20 diacid]) (Double-acylated, C-terminally extended GLP-1 analogue made by SPPS; also called 17)
197 nM | 2.2 nM | 381 pM | H[Aib]EGTFTSDVSSYLEEQAAREFIAWLVRGRGK([εLys-εLys-γGlu-Trx-C20 diacid])GGSK([εLys-εLys-γGlu-Trx-C20 diacid]) (Double-acylated, C-terminally extended GLP-1 analogue made by SPPS)
219 nM | 2.3 nM | 13 pM | [Desaminohistidyl][Aib]EGTFTSDVSSYLEEQAAREFIAWLVRGRGK([AEEA-AEEA-AEEA-AEEA-γGlu-Trx-C20 diacid])GGSK([AEEA-AEEA-AEEA-AEEA-γGlu-Trx-C20 diacid]) (Double-acylated, C-terminally extended GLP-1 analogue made by SPPS; also called 18)

Reference: patent publication US20150011462A1 (Novo Nordisk, published 2015)
